Experimental data taken from patent publication US20170305986A1, “NOVEL TGF-ALPHA MUTANT PROTEINS” (NEUROREPAIR, INC., priority 2014, published 2017).

Tests used:
[1] = Physical characteristics of mutants (isoelectric point, hydrophobicity); format: physicochemical; conditions: compared to wild type hTGFα
EGFR [2] = molecular target: T1, EGFR (Homo sapiens, UniProt P00533); experiment: Cell based (affinity) ELISA: binding of hTGFα to EGFR on A431 cells; conditions: compared to wild type hTGFα
T1 construct: A431 cells, which are known to express high levels of EGFR on their surface; host or cells: A431 cells
Procedure: Binding activity of hTGFα to EGFR was also confirmed by cell based ELISA and FACS analysis using A431 cells, which are known to express high levels of EGFR on their surface. For the cell-based assay, A431 cells (ATCC#CRL1555) were seeded into the wells of a 96 well plate. A 1000 ng/ml solution of human TGFα (hTGFα) was serially diluted (two-fold dilutions), aliquots of each dilution added to the immobilized cells, and the plates incubated to allow binding. (FIG. 3A) After washing, bound hTGFα was detected using biotinylated anti-hTGFα (R&D Systems #BAF239) and Streptavidin conjugated with HRP. TMB was added to each well, the reactions stopped after four minutes, and the samples read as described above in paragraph a). (FIG. 3B) The standard curve was generated using Softmax. (FIG. 3C)
BAP060-hTGFα-B (mature hTGFα, aa 40-89, with PelB signal sequence) wild type and CPE™ mutants were transformed into E. coli BL21 (DE3) competent cells, and recombinant protein expression induced by addition of 1 mM IPTG at 37° C. for 3 hours in 96 well format (1st confirmation) or in 14 ml tubes (2nd confirmation). After three hours, the cells were collected and periplasmic proteins prepared by incubating the cells in OS buffer (200 mM Tris-HCl, pH 7.5, 20% sucrose, 1 mM EDTA) with DNAse, RNAse and lysozyme. After addition of lysis buffer (10 mM Tris, pH 7.5, 50 mM KCl, 1 mM EDTA and 0.1% of Na-deoxycholate) to the cells in OS buffer, the cells were centrifuged and the supernatants, which contained the periplasmic fractions, were transferred to microcentrifuge tubes. The concentration of hTGFα was determined by quantitation ELISA, and 25 ng/ml of hTGFα were incubated with A431 cells (ATCC#CRL1555) immobilized on the plate. Bound hTGFα was detected with biotinylated anti-hTGFα (R&D Systems, #BAF239) and Streptavidin conjugated with HRP. The reactions were stopped by addition of HCl after TMB was added to the wells and read immediately. OD450 nm value of the reactions was measured with a Molecular Device SPECTRAmax. The initial screen identified 94 CPE™ mutants that had 1.5 fold higher binding activity compared to the wild type TGFα in the primary screening. The sequences of these CPE™ mutants are shown below in Table 2, while select characteristics for all of the CPE™ mutants can be found in FIG. 11A.
A first confirmation was performed by re-transforming E. coli BL21 cells with plasmids containing the 94 CPE™ mutants, collected the periplasmic fractions after IPTG induction and performed quantitation ELISA and cell based ELISA. This first confirmation identified 37 CPE™ mutants having a higher binding activity compared to the wild type TGFα . The second confirmation identified 27 CPE™ putative hits that consistently had higher binding activity compared to the wild type TGFα. These 27 CPE™ mutants were then tested in a cell based EGFR phosphorylation assay to confirm the functional activity of the CPE™ mutants. (FIGS. 11B and 12B)
In addition, 15 CPS™ mutants (containing up to 5 mutations) having an increased ability to induce the phosphorylation of EGFR, relative to the wild type hTGFα (FIG. 14), were selected for cell based titration ELISA to confirm their binding activities (FIG. 15). Briefly, BAP060-hTGFα-B (mature hTGFα, aa 40-89, with PelB signal sequence) wild type and CPS™ mutants were transformed into E. coli BL21 (DE3) competent cells. Protein was expressed upon the addition of 1 mM IPTG at 37° C. for 3 hours in 96 well format. Cells were collected after induction and periplasmic proteins prepared by incubating the cells in OS buffer with DNAse, RNAse and lysozyme. Lysis buffer was added to the cells in OS buffer, the cells centrifuged, and the supernatants containing the periplasmic fractions transferred to a clean set of microcentrifuge tubes. Concentration of hTGFα in each sample was determined by quantitation ELISA. […]

neuronal stem cell = conditions: ICV or intrastriatal infusion over 18 days, rat brain; cited from earlier work
[3] = tested on: central nervous system (CNS); conditions: peripheral route, animal model of Parkinson's disease; cited from earlier work
EGFR [4] = molecular target: T1, EGFR; experiment: Cell based EGFR phosphorylation assay in A431 cells; conditions: compared to wild type hTGFα
Procedure: A cell based EGFR phosphorylation assay was set up to determine the binding activity of hTGFα to EGFR using a functional assay. A431 cells were seeded in 96 well formats and were serum starved overnight. The cells were washed in serum free media and incubated with 50 ul of 0, 50, 100 or 200 ng/ml of EGF (FIG. 5A, column 1) or hTGFα (FIG. 5A, column 2) in DMEM at 37° C. for 10 min: The cells were then washed with PBS and lysed. Half of the cell lysate were used to determine the level of total EGFR (FIG. 5C) using Cell Signaling kit #7250 and the other half of the cell lysate were used to determined the level of phosphorylated EGFR (FIG. 5B) using Cell Signaling kit #7240 following vendor's protocols.
EGFR phosphorylation. BAP060-hTGFα -B (mature hTGFα, aa 40-89, with PE1B signal sequence) was transformed into E. coli BL21 (DE3) competent cells. […] Half of the cell lysate were used to determine the level of total EGFR using Cell Signaling kit #7250 and the other half of the cell lysate were used to determined the level of phosphorylated EGFR using Cell Signaling kit #7240 following vendor's protocols.
E. coli BL21 cells were transformed with BAP060-hTGFα -B CPS™ mutants and induced with IPTG at 37° C. The periplasmic fractions after IPTG induction were collected and the expression levels of hTGFα determined by quantitation ELISA, as described above. […]

BAP060-A041D: CPE™ single-substitution mutant of mature hTGFα
Mutant Characteristics: PI (isoelectric point) [1]: lower PI | Mutant Characteristics: hydrophobicity [1]: decreased | Mutant Characteristics: affinity (EGFR [2]): Neutral affinity,

BAP060-E027L: CPE™ single-substitution mutant of mature hTGFα
Mutant Characteristics: affinity (EGFR [2]): Neutral affinity,

BAP060-S036R: CPE™ single-substitution mutant of mature hTGFα
Mutant Characteristics: affinity (EGFR [2]): Increased affinity,

TGF-α: member of the EGF family that binds the EGF receptor
neuronal stem cell proliferation (neuronal stem cell): induced neuronal stem cell proliferation | abnormal motor behavior [3]: ameliorates abnormal motor behavior | neurogenesis of the central nervous system [3]: promotes neurogenesis of the central nervous system (CNS)

BAP060-Q014G: CPE™ single-substitution mutant of mature hTGFα
Mutant Characteristics: affinity (EGFR [2]): Increased affinity,

BAP060-A050W: CPE™ single-substitution mutant of mature hTGFα
Mutant Characteristics: affinity (EGFR [2]): Increased affinity,

BAP060-F017L: CPE™ single-substitution mutant of mature hTGFα
Mutant Characteristics: P-EGFR induction (EGFR [4]): P-EGFR induction, | Mutant Characteristics: affinity (EGFR [2]): Increased affinity,

BAP060-A046Y: CPE™ single-substitution mutant of mature hTGFα
Mutant Characteristics: affinity (EGFR [2]): Increased affinity,
